Experimental data published in paper PMC4488300.

Molecular target: Francisella tularensis ssp. holarctica macrophage locus protein A (MglA) (F. tularensis ssp. holarctica) (UniProt Q5NFG1)
Experiment: cross-linking + SEC

Francisella tularensis ssp. holarctica macrophage locus protein A (MglA) (from UniProt Q5NFG1 1-205) (natural protein)
stoichiometry N: 2
